Assay results taken from patent US20180298101A1 (published 2018).
Read-outs that look alike come from different tables or passages of the source. Non-standard residues stand in square brackets, D forms with d. No end group written: not given here. pY = N[C@@H](Cc1ccc(OP(=O)(O)O)cc1)C(=O)O

Legend:
Assay in all cases: ITC
[1] = molecular target: T1, human CIS lacking both the N-terminal region (residues 1-66) and the PEST motif (ΔNT/ΔPEST) in trimeric … (UniProt Q9NSE2 67-258; Q15370 1-118; Q15369 17-112)
[2] = molecular target: T2, hCIS-SH2-BC complex (ternary complex of human GST-CIS-SH2 construct, residues 66-258 with PEST region 174-202 … (UniProt Q9NSE2 66-258; Q15370 1-118; P83940 17-112)
[3] = molecular target: T2, hCIS-SH2-BC complex (ternary complex of …); remark: listed apart in the source
[4] = molecular target: human CIS lacking the PEST motif (ΔPEST) in trimeric complex with elongin B and elongin C (UniProt Q9NSE2 1-258; Q15370 1-118; Q15369 17-112)
[5] = molecular target: T1, human CIS lacking both the N-terminal …; remark: listed apart in the source
[6] = molecular target: human full-length CIS in trimeric complex with elongin B and elongin C (UniProt Q9NSE2 1-258; Q15370 1-118; Q15369 17-112)

Binder | Kd [1] [nM] | Kd [2] [nM] | Kd [3] [nM] | also measured
AIETAKE[pY]YTVKDDRD [JAK1-Y1034 phosphopeptide with an alanine substitution at the -3 position] | 3500 |  |  | 
CQV[pY]FTYDPYSE [IL-2Rβ cytoplasmic domain phosphopeptide (Tyr355 phosphorylated)] |  | 940 | 940 | 
AIETDKE[pY]YTAKDDRD [JAK1-Y1034 phosphopeptide with an alanine substitution at the +3 position] | 8300 |  |  | 
DDA[pY]CTFPSRDD [IL-2Rβ cytoplasmic domain phosphopeptide (Tyr392 phosphorylated)] |  | 1800 | 1800 | 
LLPLDKDYYVVREPGQ (not fully specified (residue 8)) [JAK3 activation loop phosphopeptide (Tyr980 phosphorylated)] |  |  | 800 | 
AIETDKE[pY]YTVKADRD [JAK1-Y1034 phosphopeptide with an alanine substitution at the +5 position] | 6300 |  |  | 
YDP[pY]SEEDPDEG [IL-2Rβ cytoplasmic domain phosphopeptide (Tyr361 phosphorylated)] |  | 1500 | 1500 | 
AIETDKE[pY]YTVKDDRD [JAK1 activation loop phosphopeptide (Tyr1034 phosphorylated)] | 2200 |  | 2100 | Kd [4]: 5300 nM; Kd [5]: 2200 nM; Kd [6]: 5300 nM
